# In US20230192897A1 (NUMAB THERAPEUTICS, published 2023):
# Columns and labels:
# Fc tagged human PDL1 = target: T1, Fc tagged human PDL1 (human, UniProt Q9NZQ7 19-239); experiment: SPR
# T1 construct: Bought (Sino Biological, cat. 10084-H02H); captured on the SPR chip; also called PDL1-Fc chimeric protein
# Outline: (§1)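 Kinetics were fitted with a one-to-one Langmuir model to give apparent ka, kd and KD. Binders at 0.12-90 nM (three-fold series) flowed 3 min, with 10 min dissociation and 3 M MgCl₂ regeneration, on a Biacore T200.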
# Fc tagged human CD137 = target: T2, Fc tagged human CD137 (human, UniProt Q07011 24-186); experiment: SPR
# T2 construct: also called CD137-Fc chimeric protein
# Outline: as §1
# [1] = target: T3, mouse CD137-Fc chimeric protein (mouse, UniProt P20334 24-187, limits assumed); experiment: SPR
# T3 sequence (looked up): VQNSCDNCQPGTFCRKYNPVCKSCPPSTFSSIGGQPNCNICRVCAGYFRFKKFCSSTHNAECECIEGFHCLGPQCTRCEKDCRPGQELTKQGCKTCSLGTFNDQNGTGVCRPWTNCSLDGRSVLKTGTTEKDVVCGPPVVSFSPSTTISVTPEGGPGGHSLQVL
# Outline: as §1
# [2] = target: T4, CD137 on Jurkat NFkB reporter cells (human, UniProt Q07011 24-255); experiment: cell-based or functional assay
# biotinylated human PDL1 [3] = target: T5, biotinylated human PDL1 (human, UniProt Q9NZQ7 19-238, limits assumed, biotinylated); experiment: competition ELISA PD-1/PDL1
# T5 construct: also called biotinylated PDL1
# biotinylated human PDL1 [4] = target: T5, biotinylated human PDL1; experiment: competition ELISA B7.1/PDL1
# Outline: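 Test mixtures containing biotinylated human PDL1 were pre-incubated 1 h at room temperature, then incubated 1.5 h on the plate under agitation. Bound PDL1 detected with 10 ng/ml streptavidin-polyHRP40 and TMB, stopped at 6 min with HCl, read at 450 nm minus 690 nm. IC₅₀ from 4PL fit.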
# [5] = target: T4, CD137 on Jurkat NFkB reporter cells; experiment: cell-based or functional assay; remark: listed apart in the source
# human PDL1 on cells = human PDL1 on cells (human, UniProt Q9NZQ7 19-290); experiment: cell-based or functional assay
# human serum albumin = target: T6, human serum albumin (human, UniProt P02768 25-609); experiment: SPR, SA coupled to chip, pH 5.5
# T6 construct: Coupled directly to the CM5 chip; also called HSA; human SA
# Protocol: Affinity of molecules to serum albumin (SA) of the different species was determined by SPR measurements using a Biacore T200 device (GE Healthcare). SA was directly coupled to a CM5 sensor chip (GE Healthcare) using amine coupling chemistry. […] The assay was run in a 1× PBS-Tween buffer at pH 5.5.
# [6] = target: T7, cynomolgus PDL1-Fc chimeric protein (cynomolgus monkey, UniProt G7PSE7 19-239); experiment: SPR
# T7 construct: PDL1-Fc chimeric protein from different species captured on the chip
# Outline: as §1
Binder,koff (Fc tagged human PDL1) [s⁻¹],kon (Fc tagged human PDL1) [M⁻¹ s⁻¹],Kd (Fc tagged human CD137) [nM],koff (Fc tagged human CD137) [s⁻¹],kon (Fc tagged human CD137) [M⁻¹ s⁻¹],"IC50 (ng/ml) (EC50 in Table 16C), NFkB reporter, HCC827 + IFNg, 24 h, +HSA [2] [ng/mL]","rel. IC50 (PRO1186/test), 24 h [2] [fold]",IC50 (biotinylated human PDL1 [3]) [ng/mL],rel. IC50 (IC50 avelumab/IC50 test) (biotinylated human PDL1 [3]) [fold],IC50 (biotinylated human PDL1 [4]) [ng/mL],rel. IC50 (IC50 avelumab/IC50 test) (biotinylated human PDL1 [4]) [fold],"Area under the curve (calculated using PRO885 normalized data), first line (6 h by the order of the upper part) [5]","Area under the curve (calculated using PRO885 normalized data), second line (24 h by the order of the upper part) [5]","EC50 [ng/ml], NF-kB reporter, HCC827 + IFNg, +HSA, 6 h [5] [ng/mL]","IC10/EC90 ratio, first line (6 h by the order of the upper part) [5]","IC10/EC90 ratio, second line (24 h by the order of the upper part) [5]","Maximum NF-kB activation (rel. to PRO1186) [%], first line (6 h by the order of the upper part) [5] [%]","Maximum NF-kB activation (rel. to PRO1186) [%], second line (24 h by the order of the upper part) [5] [%]","rel. Area under the curve (AUCsample/AUCPRO1186), first line (6 h by the order of the upper part) [5] [fold]",Kd (Fc tagged human PDL1) [nM],also measured
"PRO1134 (bispecific antibody, scDb; also called 38-02-A04 sc01 scDb-i/33-03-G02 sc07 GL VH3 scDb-o) DIQMTQSPSSLSASVGDAVTITCQASQSINDYLAWYQQKPGKSPKLLIYKASTLASGVPSRFSGSGSGTDFTLTISSLQPEDFATYYCQQGYIITDIDNVFGTGTKVTVLGGGGGSQVQLQESGPGLVKPSETLSLTCKVSGFSFSNSYWICWIRQPPGKGLEWIGCTFVGSSDSTYYANWAKGRVTISVDSSKNQFSLKLSSVTAADTAVYYCARHPSDAVYGYANNLWGQGTLVTVSSGGGGSGGGGSGGGGSGGGGSIQMTQSPSSLSASVGDRVTITCQASQSINNVLAWYQQKPGKAPKLLIYRASTLASGVPSRFSGSGSGTDFTLTISSLQPEDFATYYCQSSYGNYGDFGTGTKVTVLGGGGGSEVQLVESGGGLVQPGGSLRLSCAASGFSFSSGYDMCWVRQAPGKGLEWVGCVVAGSVDITYYASWAKGRFTISRDNSKNTVYLQMNSLRAEDTATYYCARKDAYSDAFNLWGPGTLVTVSS",7.6e-05,2.8e+06,3.4,0.00084,250000,–,–,–,–,–,–,–,–,–,–,–,–,–,–,–,Kd [1]: 420 nM
"PRO1430 (other, trispecific scDb-scFv; also called 38-02-A04 sc13 scDb-i/37-20-B03 sc01 scDb-o/19-01-H04 sc03 scFv) DIQMTQSPSSLSASVGDRVTITCQASQSIGTYLAWYQQKPGKAPKLLIYRAFILASGVPSRFSGSGSGTDFTLTISSLQPEDFATYYCQSNFYSDSTTIGPNAFGTGTKVTVLGGGGGSEVQLVESGGGLVQPGGSLRLSCAASGFSFSNSYWICWVRQAPGKCLEWIGCTFVGSSDSTYYANWAKGRFTISRDNSKNTVYLQMNSLRAEDTAVYYCARHPSDAVYGYANNLWGQGTLVTVSSGGGGSGGGGSGGGGSGGGGSIQMTQSPSSLSASVGDRVTITCQASQSINNVLAWYQQKPGKAPKLLIYRASTLASGVPSRFSGSGSGTDFTLTISSLQPEDFATYYCQSSYGNYGDFGCGTKVTVLGGGGGSQVQLQESGPGLVKPSETLSLTCKVSGFSFNSDYWIYWIRQPPGKGLEWIGSIYGGSSGNTQYASWAQGRVTISVDSSKNQFSLKLSSVTAADTAVYYCARGYVDYGGATDLWGQGTLVTVSSGGGGSGGGGSIQMTQSPSSLSASVGDRVTITCQSSESVYSNNQLSWYQQKPGQPPKLLIYDASDLASGVPSRFSGSGSGTDFTLTISSLQPEDFATYYCAGGFSSSSDTAFGGGTKLTVLGGGGGSGGGGSGGGGSGGGGSEVQLVESGGGLVQPGGSLRLSCAASGFSLSSNAMGWVRQAPGKGLEYIGIISVGGFTYYASWAKGRFTISRDNSKNTVYLQMNSLRAEDTATYFCARDRHGGDSSGAFYLWGQGTLVTVSS",–,–,1.5,0.00071,460000,4.42,1.51,1.92,0.73,2.42,1.15,196,180,9.8,72.4,1240,110,98.6,1.03,0.0045,"rel. Area under the curve (AUCsample/AUCPRO1186), second line (24 h by the order of the upper part) [5]: 0.87 fold; rel. EC50 (EC50, PRO1186/EC50, sample), NF-kB reporter, 6 h [5]: 1.31 fold; rel. EC50 (EC50, PRO1186/EC50, sample), NF-kB reporter, 24 h [5]: 1.51 fold; rel. IC10/EC90 (ratio of sample/ratio of PRO1186), first line (6 h by the order of the upper part) [5]: 0.22 fold; rel. IC10/EC90 (ratio of sample/ratio of PRO1186), second line (24 h by the order of the upper part) [5]: 3.94 fold; IC50 (ng/ml), NF-AT potency assay, +HSA (human PDL1 on cells): 16.2 ng/mL; rel. IC50 (avelumab/test), +HSA (human PDL1 on cells): 1.45 fold; Kd (human serum albumin): 1 nM; koff (human serum albumin): 0.0003 s⁻¹; kon (human serum albumin): 290000 M⁻¹ s⁻¹"
"PRO997 (scFv, also called 37-20-B03 sc01 scFv; 37-20-B03 CDR) scFv: DIQMTQSPSSLSASVGDRVTITCQASQSIGTYLAWYQQKPGKAPKLLIYRAFILASGVPSRFSGSGSGTDFTLTISSLQPEDFATYYCQSNFYSDSTTIGPNAFGTGTKVTVLGGGGGSGGGGSGGGGSGGGGSQVQLQESGPGLVKPSETLSLTCKVSGFSFNSDYWIYWIRQPPGKGLEWIGSIYGGSSGNTQYASWAQGRVTISVDSSKNQFSLKLSSVTAADTAVYYCARGYVDYGGATDLWGQGTLVTVSS",< 2e-05,5.9e+06,–,–,–,–,–,0.5,4.16,6.36,2.34,–,–,–,–,–,–,–,–,≤ 0.0017,"IC50 (ng/ml), NF-AT potency assay (human PDL1 on cells): 11.1 ng/mL; rel. IC50 (avelumab/test) (human PDL1 on cells): 3.07 fold; fold higher affinity against the STR graft of clone 33-03-G02 (Fc tagged human PDL1): ~2 fold; koff [6]: < 1e-05 s⁻¹; kon [6]: 6e+06 M⁻¹ s⁻¹"
"PRO1479 (other, trispecific scDb-scFv; also called 38-02-A04 sc13 scDb-i/37-20-B03 sc09.1 scDb-o/19-01-H04 sc03 scFv) DIQMTQSPASLSASVGDRVTITCQASQSIGTYLAWYQQKPGKPPKLLIYRAFILASGVPSRFSGSGSGTDFTLTISSLQPEDFATYYCQSNFYSDSTTIGPNAFGTGTKVTVLGGGGGSEVQLVESGGGLVQPGGSLRLSCAASGFSFSNSYWICWVRQAPGKCLEWIGCTFVGSSDSTYYANWAKGRFTISRDNSKNTVYLQMNSLRAEDTAVYYCARHPSDAVYGYANNLWGQGTLVTVSSGGGGSGGGGSGGGGSGGGGSIQMTQSPSSLSASVGDRVTITCQASQSINNVLAWYQQKPGKAPKLLIYRASTLASGVPSRFSGSGSGTDFTLTISSLQPEDFATYYCQSSYGNYGDFGCGTKVTVLGGGGGSEVQLVESGGGLVQPGGSLRLSCAASGFSFNSDYWIYWVRQAPGKGLEWIASIYGGSSGNTQYASWAQGRFTISRDNSKNTVYLQMNSLRAEDTAVYFCARGYVDYGGATDLWGQGTLVTVSSGGGGSGGGGSIQMTQSPSSLSASVGDRVTITCQSSESVYSNNQLSWYQQKPGQPPKLLIYDASDLASGVPSRFSGSGSGTDFTLTISSLQPEDFATYYCAGGFSSSSDTAFGGGTKLTVLGGGGGSGGGGSGGGGSGGGGSEVQLVESGGGLVQPGGSLRLSCAASGFSLSSNAMGWVRQAPGKGLEYIGIISVGGFTYYASWAKGRFTISRDNSKNTVYLQMNSLRAEDTATYFCARDRHGGDSSGAFYLWGQGTLVTVSS",–,4.2e+06,1.7,0.00054,330000,7.61,0.87,2.65,0.86,10.7,1.38,191,207,7.38,81.9,523,108,119,1.11,0.0092,"rel. Area under the curve (AUCsample/AUCPRO1186), second line (24 h by the order of the upper part) [5]: 1.37 fold; rel. EC50 (EC50, PRO1186/EC50, sample), NF-kB reporter, 6 h [5]: 1.74 fold; rel. EC50 (EC50, PRO1186/EC50, sample), NF-kB reporter, 24 h [5]: 0.87 fold; rel. IC10/EC90 (ratio of sample/ratio of PRO1186), first line (6 h by the order of the upper part) [5]: 0.25 fold; rel. IC10/EC90 (ratio of sample/ratio of PRO1186), second line (24 h by the order of the upper part) [5]: 1.66 fold; IC50 (ng/ml), NF-AT potency assay, +HSA (human PDL1 on cells): 50.4 ng/mL; rel. IC50 (avelumab/test), +HSA (human PDL1 on cells): 1.04 fold; Kd (human serum albumin): 0.976 nM"
